# From the DeepSol protein solubility set
# Test: soluble on expression in E. coli; label from the status in PepcDB or PDB records
row,Sequence,soluble on expression in E. coli
1,MQKLINSVQNYAWGSKTALTELYGIANPQQQPMAELWMGAHPKSSSRITTANGETVSLRDAIEKNKTAMLGEAVANRFGELPFLFKVLCAAQPLSIQVHPNKRNSEIGFAKENAAGIPMDAAERNYKDPNHKPELVFALTPFLAMNAFREFSDIVSLLQPVAGAHSAIAHFLQVPNAERLSQLFASLLNMQGEEKSRALAVLKAALNSQQGEPWQTIRVISEYYPDDSGLFSPLLLNVVKLNPGEAMFLFAETPHAYLQGVALEVMANSDNVLRAGLTPKYIDIPELVANVKFEPKPAGELLTAPVKSGAELDFPIPVDDFAFSLHDLALQETSIGQHSAAILFCVEGEAVLRKDEQRLVLKPGESAFIGADESPVNASGTGRLARVYNKL,not soluble
2,MSLRIAIQGCSHGSLAQIYDVVNYYSSQTKNPIDLLLLCGDFQALRSKHDYASLAVPAKFKQLGSFHQYYSGERVAPVLTIVIGGNHEASNYMWELYHGGWLAPSIYYLGAAGSVYMNGLRIVGASGIYKGFDYRKGHFEKVPYNDKELRSIYHIREYDVEKLMHLTPSPSTIFLSHDWPTTIAHHGNKNALLKRKPFFRDENTLGSPPLLRLMNHFQPSYWFSAHLHVKFAALYEHQAPSHGPDVDGGAPLPLPAMSTAIAQTGNEGHHHHHH,not soluble
3,MGSDKIHHHHHHMEYEQLLQSELGELEIIREELQNKEYRGMIVKTAKDGTTIRTRLAKKTDKKTGYFVAFWEKDELGKNCPFDENDSADFLCIVVIDGDLNGLFVFPRQCLIEKGILTSEVGIGKMAARFYPSWCQDLNKTAEKTQAWQQVYFKNYSIRKEDH,not soluble
4,MSLNPRPGKVVIYSEPDVSEKCIEVFSDIQDCSSWSLSPVILIKVVRGCWILYEQPNFEGHSIPLEEGELELSGLWGIEDILERHEEAESDKPVVIGSIRHVVQDYRVSHIDLFTEPEGLGILSSYFDDTEEMQGFGVMQKTCSMKVHWGTWLIYEEPGFQGVPFILEPGEYPDLSFWDTEAAYIGSMRPLKMGGRKVEFPTDPKVVVYEKPFFEGKCVELETGMCSFVMEGGETEEATGDDHLPFTSVGSMKVLRGIWVAYEKPGFTGHQYLLEEGEYRDWKAWGGYNGELQSLRPILGDFSNAHMIMYSEKNFGSKGSSIDVLGIVANLKETGYGVKTQSINVLSGVWVAYENPDFTGEQYILDKGFYTSFEDWGGKNCKISSVQPICLDSFTGPRRRNQIHLFSEPQFQGHSQSFEETTSQIDDSFSTKSCRVSGGSWVVYDGENFTGNQYVLEEGHYPCLSAMGCPPGATFKSLRFIDVEFSEPTIILFEREDFKGKKIELNAETVNLRSLGFNTQIRSVQVIGGIWVTYEYGSYRGRQFLLSPAEVPNWYEFSGCRQIGSLRPFVQKRIYFRLRNKATGLFMSTNGNLEDLKLLRIQVMEDVGADDQIWIYQEGCIKCRIAEDCCLTIVGSLVTSGSKLGLALDQNADSQFWSLKSDGRIYSKLKPNLVLDIKGGTQYDQNHIILNTVSKEKFTQVWEAMVLYTEGHHHHHH,not soluble
5,MEKSEIQKVDQVIRAWLEDEPLMYERLLEVEALEALPQVLGPLYKFLGRSRIHDGVLYLTFNSSVVRSQLSNNKAELLLRLNTAVDAELIRQIVFL,not soluble
6,MASSGDYDEIIKSISDAPPTHYMVKIESFSLLTKHAIERYETESFEAGGYKWKLVLYPNGNKSKNTKDHVSVYLSLADSSSLSPGWEVYAVFRLYLLDQNKDNYLILQGNERRFHSVKREWGFDKFIPTGTFSDASNGYLMEDTCMFGADVFVSKERRSGRGECLSMIKDATSSKHVWKIENFSKLDKESYDSNAFFAGDRKWKIEFYPTGTKQGTGTHLSIYLTLVDPETISDGTKIFVEFTIRIFDQLQGRHIAGKVTKWFSRSSSEHGWVKYVSMVYFTQPNSGLLLKDVCLVEADVCVHGITSAI,soluble
7,MTDRLSILVPIRVLEGESVPEGVPELLAHAHVVLLGYHVIPEQTAPGQARMQFEDRATERLDEYQEMFEDAGATVERRLVFTHNGQKTIDRMIAEHDCMAVLVPNATGPVEDVLVPVRGAIGVDRLARVVASVFGEMDADVTLYHVADEDTTDDDIQTLLGGLADRLAEFGMDPSTIETRIDRDQNPLDAIVDVSDGFDTVVMGETDPSLATFVFGMPADQVANRFLGPVFVAQRERPSADEDE,not soluble
8,MGSDKIHHHHHHMPLPQVTMQELPWKMKKSLSRSTLRSPNGFSEIGLKLEMVSQDALRRTIFPLGGLTKEFVKKIAAENRLHHVLQKKESMGMCFIGKRNFEHFLLQYLQPRPGHFISIEDNKVLGTHKGWFLYTLGQRANIGGLREPWYVVEKDSVKGDVFVAPRTDHPALYRDLLRTSRVHWIAEEPPAALVRDKMMECHFRFRHQMALVCCVLQGGRVPGQREDPAAGAVCLHAPEGPAQSWDGH,not soluble
9,SFREQDIYLPIANVARIMKNAIPQTGKIAKDAKECVQECVSEFISFITSEASERCHQEKRKTINGEDILFAMSTLGFDSYVEPLKLYLQKFRE,soluble
10,SNAMSQEAFENKLYANLEAVIDPELGVDIVNLGLVYDVTADENNNAVITMTMTSIGCPMAGQIVSDVKKVLSTNVPEVNEIEVNVVWNPPWSKERMSRMAKIALGIRD,soluble
11,MSLAQLPSELLSLQLPLRIRIGDAQAFDLGPDPQVTMVIRDPTLLTEITHPSLDALGKAYVEKRLDIEGPISQVIGIGDALSEALGDPDGEASPVRESHDKATDAEAIHYHYDLSNDFYRLWLDPEMVYSCAYFETGREDLATAQLAKLRHLCRKLRLQPGEKLLDVGCGWGGLARLAAREFGVEVTGITLSKEQLALGQERVRAEGLEDRVTLKLLDYRDLPRDGRFDKVVSVGMFEHVGHANLGLYFQQLYDAVRPGGLVMNHGITSLYTDGRPVGKGAGDFIDRYVFPHGELPHLSLAVARMSEAGLEVVDVESLRLHYARTLDFWSANLEAKLKEAARLVPEETLRIWRLYLAGCAYGFKRGWINLHQILANRPHEDGSHELPWSRRDLYAEGHHHHHH,soluble
12,VTTRDLTAAQFNETIQSSDMVLVDYWASWCGPCRAFAPTFAESSEKHPDVVHAKVDTEAERELAAAAQIRSIPTIMAFKNGKLLFNQAGALPPAALESLVQQLKAYEVEAGEATTQNGRAQQA,soluble
13,MGSDKIHHHHHHMQSQELERIARQIRLRDVQAVFEAGAGHVGGEMSAIDIMTALYFRVLRIWPNDPKNPARDRFVLSKGHTACALYVTLAKRGFIPEEEISTFLQPNSRLNGHPNCNKVPGVETNTGPLGHGLPVAVGMATAAKLSGEDYHTYVMTGDGEMQEGSNWEAIMSAAQFKLNNLTLVIDHNRFQQGAAIADTNDVAPLRPKLEAFGWEVTEINGNAMAEVVPALEHRGNRPHCIVAHTNKGHGISFMQDRVDWHHKVPSKEQYEIAVKELSEAL,not soluble
14,MSLSRHSNTPATDASVLLVQLSDSHLFAEDGARLLGMDTAHSLEKVVERVAREQPRIDLILATGDVSQDGSLDSYTRFRRLSAPLDAPLRWFAGNHDEREPMQRATEGSDLLEQVVDVGNWRVVLLDSSIPGAVPGYLEEDQLELLRRAIDSAGERFLLVSFHHHPVPIGSDWMDPIGLRNPQALFDLLAPYPQVRCLLWGHIHQEFDRQRGPLRLLASPSTCVQFAPGSSDFTLDRLAPGYRWLRLHDDGRLETGISRVDDVVFEVDYDTAGYEGGSHHHHHH,soluble
15,MYIIAHRGASGYAPENTIAAFDLAVKMNADMIELDVQLTKDRQIVVIHDDRVDRTTNGSGFVKDFTLEELQKLDAGSWYGPAFQGERIPTLEAVLKRYHKKIGLLIELKGHPSQVGIEEEVGQLLGQFSFSINNIVQSFQFRSVQRFRELYPSIPTAVITRPNFGMLSRNQMKAFRSFANYVNIKHTRLNRLMIGSINKNGLNIFAWTVNNQKTAAKLQAMGVDGIVTDYPDFIIKDGKHENILEHHHHHH,not soluble
16,MGSDKIHHHHHHMLIEIPNVFSKQEVNQLREQLDARTWIDGNQTSGMMASTRKRNQQLDKDDPVALQIGELIMARLLAHPLFVSAALPLQFYPPLFNRYQGGDTFGYHIDNAIRSTSDGMVRTDLSATLFLSELNAYEGGELVIQDTYGQQSIKLAAGSLVLYPSTSLHQVTPVTSGERTSAFMWLQSMVRDEGQRRLLFQLDQSIQTLTAQQAAEQELFNLTGVYHNLLRRWSEL,not soluble
